Source: patent publication US20200317768A1 (published 2020)
Changes are numbered by the printed parent chain. Numbers in names are those of the source.

T1: cynomolgus monkey FcγRIIa1 extracellular domain, C-terminal His-tag (cynomolgus monkey)
T1 construct: also called cyno FcγRIIa1; cynoFcgRIIa1
T1 chain: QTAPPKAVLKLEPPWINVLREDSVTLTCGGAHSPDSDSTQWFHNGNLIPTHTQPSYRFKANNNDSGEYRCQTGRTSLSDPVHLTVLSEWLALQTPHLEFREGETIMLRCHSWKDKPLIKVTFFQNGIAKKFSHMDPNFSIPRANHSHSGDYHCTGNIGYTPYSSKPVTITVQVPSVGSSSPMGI

T2: human FcγRIIaR extracellular domain, C-terminal His-tag (human, UniProt P12318 34-217)
T2 construct: also called human FcγRIIa (type R); FcgRIIaR
T2 chain: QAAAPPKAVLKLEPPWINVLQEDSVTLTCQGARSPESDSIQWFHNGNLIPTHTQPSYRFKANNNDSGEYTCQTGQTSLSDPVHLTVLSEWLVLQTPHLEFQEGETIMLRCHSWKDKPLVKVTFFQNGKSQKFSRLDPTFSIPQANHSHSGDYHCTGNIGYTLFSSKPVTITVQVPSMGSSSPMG

T3: cynomolgus monkey FcγRIIa2 extracellular domain, C-terminal His-tag (cynomolgus monkey)
T3 construct: also called cyno FcγRIIa2; cynoFcgRIIa2
T3 chain: T1 chain with P95T, T121A, I127K, A128S, K130N, D135N, R142Q

T4: human FcγRIIaH extracellular domain, C-terminal His-tag (human, UniProt P12318 34-217)
T4 construct: also called human FcγRIIa (type H); FcgRIIaH
T4 sequence: T2 chain with R134H

T5: cynomolgus monkey FcγRIIIaS extracellular domain, C-terminal His-tag (cynomolgus monkey, UniProt Q8SPW2 21-206 at identity 1.00))
T5 construct: also called cyno FcγRIIIaS; cynoFcγRIIIaS
T5 chain: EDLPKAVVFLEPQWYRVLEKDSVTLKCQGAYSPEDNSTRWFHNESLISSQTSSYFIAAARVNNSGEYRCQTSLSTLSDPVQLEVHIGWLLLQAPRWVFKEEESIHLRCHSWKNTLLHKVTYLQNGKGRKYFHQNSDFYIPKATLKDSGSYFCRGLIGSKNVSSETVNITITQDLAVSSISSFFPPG

T6: cynomolgus monkey FcγRIIb extracellular domain, C-terminal His-tag (cynomolgus monkey)
T6 construct: also called cyno FcγRIIb; cynoFcγRIIb
T6 chain: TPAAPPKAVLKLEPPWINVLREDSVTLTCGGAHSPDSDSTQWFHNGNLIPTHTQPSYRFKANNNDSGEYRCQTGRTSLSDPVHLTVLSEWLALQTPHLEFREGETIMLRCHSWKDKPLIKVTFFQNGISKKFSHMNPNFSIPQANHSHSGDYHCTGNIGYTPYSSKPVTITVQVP

T7: cynomolgus monkey FcγRIIa3 extracellular domain, C-terminal His-tag (cynomolgus monkey)
T7 construct: also called cyno FcγRIIa3; cynoFcgRIIa3
T7 chain: T1 chain with P95T, T121A, A128S, H133P, D135N

T8: human FcγRIIb extracellular domain, C-terminal His-tag (human, UniProt P31994 43-217)
T8 construct: also called human FcgRIIb; FcgRIIb
T8 sequence: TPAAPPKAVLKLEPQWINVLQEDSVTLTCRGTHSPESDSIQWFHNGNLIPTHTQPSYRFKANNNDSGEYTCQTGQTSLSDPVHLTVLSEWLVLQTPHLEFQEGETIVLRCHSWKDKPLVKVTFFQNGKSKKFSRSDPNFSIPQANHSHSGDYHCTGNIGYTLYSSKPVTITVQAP

T9: human FcγRIIaR extracellular domain, C-terminal His-tag (human, UniProt P12318 34-217)
T9 construct: also called human FcγRIIa (type R); FcgRIIaR
T9 chain: T2 chain

T10: human FcγRIIaH extracellular domain, C-terminal His-tag (human, UniProt P12318 34-217)
T10 construct: also called human FcγRIIa (type H); FcgRIIaH
T10 sequence: T2 chain with R134H

T11: human FcγRIIb extracellular domain, C-terminal His-tag (human, UniProt P31994 43-217)
T11 construct: also called FcgRIIb (human)
T11 sequence: T8 sequence

B1: M103205H795-MY198/M103202L889-SK1 (antibody, human IgG1, kappa)
heavy: QVTLKESGPVLVKPTETLTLTCTVSGIDLSHDDISWVRQAPGKGLEWVGIISYAGSTYYASWAKGRLTISKDTSKNQVVLTMTNMDPVDTATYYCARGVPAYSHGGDLWGQGTLVTVSSASTKGPSVFPLAPSSKSTSGGTAALGCLVKDYFPEPVTVSWNSGALTSGVHTFPAVLQSSGLYSLSSVVTVPSSSLGTQTYICNVNHKPSNTKVDKKVEPKSCDKTHTCPPCPAPELLNGPVVFLFPPKPKDTLMISRTPEVTCVVVDVSDEDPEVKFNWYVDGVEVHNAKTKPREEQYNSTYRVVSVLTVLHQDWLNGKEYKCKVSNKALPKPIEKTISKAKGQPREPQVYTLPPSREEMTKNQVSLTCLVKGFYPSDIAVEWESNGQPENNYKTTPMVLDSDGSFFLYSKLTVDKSRWQQGNVFSCSVMHEALHNHYTQKSLSLSP
light: DIVMTQSPATLSLSPGERATLSCTSSQSVYHANWLSWFQQKPGQPPKLLIYWASTLAYGVPSRFSGSGSGTDFTLTISSLQPEDAATYYCAGGYGGGRYAFGQGTKVEIKRTVAAPSVFIFPPSDEQLKSGTASVVCLLNNFYPREAKVQWKVDNALQSGNSQESVTEQDSKDSTYSLSSTLTLSKADYEKHKVYACEVTHQGLSSPVTKSFNRGEC
notes: Substitutions introduced into M103205H795-SG1; expressed with M103202L889-SK1 as light chain
B2: M103205H795-MY199/M103202L889-SK1 (antibody, human IgG1, kappa)
heavy: B1 heavy with V241S, D270E, M398P
light: B1 light
notes: as for B1
B3: M103205H795-MY200/M103202L889-SK1 (antibody, human IgG1, kappa)
heavy: B1 heavy with D270E, M398P
light: B1 light
notes: as for B1
B4: M103205H795-MY201/M103202L889-SK1 (antibody, human IgG1, kappa)
heavy: B1 heavy with V241S, M398P
light: B1 light
notes: also called MS1032LO06-MY201
B5: M103205H795-MY202/M103202L889-SK1 (antibody, human IgG1, kappa)
heavy: B1 heavy with M398P
light: B1 light
notes: as for B1
B6: M103205H795-MY204/M103202L889-SK1 (antibody, human IgG1, kappa)
heavy: B1 heavy with D270E, Q297L, M398P
light: B1 light
notes: as for B1
B7: M103205H795-MY205/M103202L889-SK1 (antibody, human IgG1, kappa)
heavy: B1 heavy with V241S, Q297L, M398P
light: B1 light
notes: also called MS1032LO06-MY205
B8: GpH7-B3 variant S267A/GpL16-k0 (antibody, human IgG1, kappa)
heavy: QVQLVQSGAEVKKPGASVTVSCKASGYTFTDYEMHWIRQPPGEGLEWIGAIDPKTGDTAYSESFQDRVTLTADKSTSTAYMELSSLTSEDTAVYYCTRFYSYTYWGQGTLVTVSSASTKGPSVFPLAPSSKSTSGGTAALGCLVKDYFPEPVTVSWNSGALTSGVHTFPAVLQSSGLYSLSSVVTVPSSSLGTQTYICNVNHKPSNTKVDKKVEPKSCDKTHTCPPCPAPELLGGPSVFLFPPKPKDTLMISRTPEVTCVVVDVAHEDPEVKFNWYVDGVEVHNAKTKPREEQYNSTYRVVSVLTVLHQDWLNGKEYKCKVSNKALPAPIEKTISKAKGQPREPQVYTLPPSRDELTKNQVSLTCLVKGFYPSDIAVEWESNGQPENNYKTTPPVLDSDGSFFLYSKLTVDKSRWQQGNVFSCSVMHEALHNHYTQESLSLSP
light: DIVMTQSPLSLPVTPGEPASISCQASESLVHSNRNTYLHWYLQKPGQSPQLLIYKVSNRFSGVPDRFSGSGSGTDFTLKISRVEAEDVGVYYCSQNTHVPPTFGQGTKVEIERTVAAPSVFIFPPSDEQLKSGTASVVCLLNNFYPREAKVQWKVDNALQSGNSQESVTEQDSKDSTYSLSSTLTLSKADYEKHKVYACEVTHQGLSSPVTKSFNRGEC
B9: GpH7-B3 variant S267H/GpL16-k0 (antibody, human IgG1, kappa)
heavy: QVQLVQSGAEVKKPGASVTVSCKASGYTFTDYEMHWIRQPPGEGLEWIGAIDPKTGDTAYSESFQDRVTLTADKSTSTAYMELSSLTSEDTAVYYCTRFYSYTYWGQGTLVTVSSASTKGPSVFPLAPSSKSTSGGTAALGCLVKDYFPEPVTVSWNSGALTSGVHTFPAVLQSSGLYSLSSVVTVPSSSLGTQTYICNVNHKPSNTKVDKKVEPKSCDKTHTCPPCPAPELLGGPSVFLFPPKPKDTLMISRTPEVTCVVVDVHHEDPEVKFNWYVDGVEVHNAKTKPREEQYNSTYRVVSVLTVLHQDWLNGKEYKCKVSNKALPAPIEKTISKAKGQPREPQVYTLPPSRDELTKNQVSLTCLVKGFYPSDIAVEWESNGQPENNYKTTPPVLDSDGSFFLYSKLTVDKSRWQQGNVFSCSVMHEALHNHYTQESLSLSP
light: B8 light
B10: GpH7-B3 variant S267L/GpL16-k0 (antibody, human IgG1, kappa)
heavy: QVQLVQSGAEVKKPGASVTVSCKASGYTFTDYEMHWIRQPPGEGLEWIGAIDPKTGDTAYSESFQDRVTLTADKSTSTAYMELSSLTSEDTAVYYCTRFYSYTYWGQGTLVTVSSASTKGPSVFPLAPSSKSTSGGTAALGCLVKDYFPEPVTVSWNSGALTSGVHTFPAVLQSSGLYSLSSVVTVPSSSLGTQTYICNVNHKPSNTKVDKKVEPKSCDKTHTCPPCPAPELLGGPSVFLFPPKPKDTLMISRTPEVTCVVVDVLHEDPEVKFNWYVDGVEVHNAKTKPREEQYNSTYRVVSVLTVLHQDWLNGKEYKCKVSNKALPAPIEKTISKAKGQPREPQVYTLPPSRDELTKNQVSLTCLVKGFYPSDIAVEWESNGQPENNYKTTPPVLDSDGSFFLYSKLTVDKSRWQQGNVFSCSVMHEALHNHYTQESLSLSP
light: B8 light
B11: GpH7-B3 variant S298L/GpL16-k0 (antibody, human IgG1, kappa)
heavy: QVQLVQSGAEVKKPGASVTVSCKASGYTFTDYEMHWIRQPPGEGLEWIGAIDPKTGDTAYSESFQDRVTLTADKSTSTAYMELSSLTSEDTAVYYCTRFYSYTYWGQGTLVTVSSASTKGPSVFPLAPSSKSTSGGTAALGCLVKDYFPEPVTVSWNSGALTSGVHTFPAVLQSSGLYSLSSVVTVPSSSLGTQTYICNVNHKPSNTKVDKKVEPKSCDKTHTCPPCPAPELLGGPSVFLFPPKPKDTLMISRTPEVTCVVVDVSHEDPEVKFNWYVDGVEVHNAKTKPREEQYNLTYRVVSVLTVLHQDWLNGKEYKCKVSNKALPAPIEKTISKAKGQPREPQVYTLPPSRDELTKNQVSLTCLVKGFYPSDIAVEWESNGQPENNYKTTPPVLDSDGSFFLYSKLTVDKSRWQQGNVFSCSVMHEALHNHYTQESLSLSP
light: B8 light

What was measured:
[1] = biological target: T12, human FcγRIIIaV extracellular domain, C-terminal His-tag (human, UniProt P08637 17-208); assay: SPR (Biacore), antibody captured, FcgR analyte
T12 construct: also called human FcgRIIIaV; FcgRIIIaV
Method: (§1) The kinetic analysis of interactions between these antibodies and FcγR was carried out using BIACORE® T200 or BIACORE® 4000 (GE Healthcare). HBS-EP+ (GE Healthcare) was used as the running buffer, and the measurement temperature was set to 25° C. A chip produced by immobilizing Protein A. Protein A/G or mouse anti-human IgG kappa light chain (BD Biosciences) onto a Series S Sensor Chip CM4 or CM5 (GE Healthcare) by the amine-coupling method was used. […] After the measurement, the antibody captured on the chip was washed off by allowing reaction with 10 mM glycine-HCl, pH1.5 and 25 mM NaOH so that the chip was regenerated and used repeatedly. The sensorgrams obtained as measurement results were analyzed by the 1:1 Langmuir binding model using the BIACORE® Evaluation Software to calculate the binding rate constant ka (L/mol/s) and dissociation rate constant kd (l/s), and the dissociation constant KD (mol/L) was calculated from these values. […] Regarding such interactions, KD values were calculated using the following 1:1 binding model described in BIACORE® T100 Software Handbook BR1006-48 Edition AE.
(§2) The behavior of interacting molecules according to the 1:1 binding model on BIACORE® can be described by Equation 1: Req=C·R max/(KD+C)+RI, wherein, Req is a plot of steady-state binding levels to analyte concentration. C is concentration, RI is bulk refractive index contribution in the sample, and Rmax is analyte binding capacity of the surface. When this equation is rearranged, KD can be expressed as Equation 2: KD=C·Rmax/(Req−RI)−C. KD can be calculated by substituting the values of Rmax, RI, and C into Equation 1 or Equation 2. From the current measurement conditions, RI=0, C=2 μmol/L can be used.

[2] = biological target: T1, cynomolgus monkey FcγRIIa1 …; assay: SPR (Biacore), antibody captured, FcgR analyte
Method: as §1, §2

[3] = biological target: T2, human FcγRIIaR extracellular domain, …; assay: SPR (Biacore), antibody captured, FcgR analyte
Method: as §1, §2

[4] = biological target: T3, cynomolgus monkey FcγRIIa2 …; assay: SPR (Biacore), antibody captured, FcgR analyte
Method: as §1, §2

[5] = biological target: T4, human FcγRIIaH extracellular domain, …; assay: SPR (Biacore), antibody captured, FcgR analyte
Method: as §1, §2

[6] = biological target: T5, cynomolgus monkey FcγRIIIaS …; assay: SPR (Biacore), antibody captured, FcgR analyte
Method: as §1, §2

[7] = biological target: T6, cynomolgus monkey FcγRIIb extracellular …; assay: SPR (Biacore), antibody captured, FcgR analyte
Method: as §1, §2

[8] = biological target: T7, cynomolgus monkey FcγRIIa3 …; assay: SPR (Biacore), antibody captured, FcgR analyte
Method: as §1, §2

[9] = biological target: T8, human FcγRIIb extracellular domain, …; assay: SPR (Biacore), antibody captured, FcgR analyte
Method: as §1, §2

[10] = biological target: T9, human FcγRIIaR extracellular domain, …; assay: SPR 25C; FcgR bound per captured antibody, relative to parent B3
[11] = biological target: T10, human FcγRIIaH extracellular domain, …; assay: as above
[12] = biological target: T11, human FcγRIIb extracellular domain, …; assay: as above

T12 sequence (P08637 17-208 F176V): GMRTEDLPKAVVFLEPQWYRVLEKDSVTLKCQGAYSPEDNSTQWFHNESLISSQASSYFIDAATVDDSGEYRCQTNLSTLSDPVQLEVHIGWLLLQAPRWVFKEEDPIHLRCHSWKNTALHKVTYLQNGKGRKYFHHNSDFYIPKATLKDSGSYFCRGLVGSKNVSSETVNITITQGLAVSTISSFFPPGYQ

Binder	Kd [1]	Kd [2]	Kd [3]	Kd [4]	Kd [5]	Kd [6]	Kd [7]	Kd [8]	Kd [9]	Binding to human FcgRs (parent B3 = 100) [10]	Binding to human FcgRs (parent B3 = 100) [11]	Binding to human FcgRs (parent B3 = 100) [12]
B1	8.9 µM	0.44 µM	0.8 µM	0.35 µM	0.58 µM	2.7 µM	0.24 µM	1.4 µM	0.42 µM	–	–	–
B2	15 µM	19 µM	2.8 µM	2 µM	11 µM	4.1 µM	1.1 µM	12 µM	1.9 µM	–	–	–
B3	15 µM	1.7 µM	27 µM	1.5 µM	1.7 µM	4.4 µM	1.1 µM	5 µM	1.4 µM	–	–	–
B4	24 µM	14 µM	1.9 µM	1.4 µM	0.91 µM	5.7 µM	0.43 µM	39 µM	1.1 µM	–	–	–
B5	9.4 µM	0.86 µM	1.2 µM	0.64 µM	12 µM	4 µM	0.46 µM	22 µM	0.71 µM	–	–	–
B6	13 µM	1.3 µM	2.8 µM	1.4 µM	1.3 µM	3.5 µM	0.81 µM	5.2 µM	1.3 µM	–	–	–
B7	15 µM	0.9 µM	1.3 µM	1.1 µM	0.47 µM	6 µM	0.25 µM	30 µM	0.56 µM	–	–	–
B8	–	–	–	–	–	–	–	–	–	125 parent B3 = 100	176 parent B3 = 100	283 parent B3 = 100
B9	–	–	–	–	–	–	–	–	–	3 parent B3 = 100	27 parent B3 = 100	42 parent B3 = 100
B10	–	–	–	–	–	–	–	–	–	3 parent B3 = 100	63 parent B3 = 100	112 parent B3 = 100
B11	–	–	–	–	–	–	–	–	–	71 parent B3 = 100	99 parent B3 = 100	114 parent B3 = 100
